Data published in US20260242488A1 (BIOTHEUS, published 2026).
Residue numbers refer to the chain shown, from its start.

B1: anti-c-Met single-arm antibody 223 (antibody, human IgG1, kappa, L234A L235A)
heavy: not shown
light: DIQLTQSPSSLSASVGDRVTITCRASQSIITYLNWYQQKPGKAPKLLIYAASSLQSGVPSRFSGSGSGTDFTLNISSLQPEDFATYYCQQANSLPYTFGQGTKVEIKRTVAAPSVFIFPPSDEQLKSGTASVVCLLNNFYPREAKVQWKVDNALQSGNSQESVTEQDSKDSTYSLSSTLTLSKADYEKHKVYACEVTHQGLSSPVTKSFNRGEC
chain: not shown
notes: made in Expi-CHO
B2: anti-c-Met single-arm antibody 22 (antibody, human IgG1, kappa, L234A L235A)
heavy: not shown
light: DIVMTQSPSSVSASVGDRVTITCRASQGISSWLAWYQQKPGKAPKLLIYAASSLQSGVPSKFSGSGSGTEFTLTISSLQPEDFATYFCQQAYGFPLTFGGGTKVEIKRTVAAPSVFIFPPSDEQLKSGTASVVCLLNNFYPREAKVQWKVDNALQSGNSQESVTEQDSKDSTYSLSSTLTLSKADYEKHKVYACEVTHQGLSSPVTKSFNRGEC
chain: not shown
notes: made in Expi-CHO
B3: anti-c-Met single-arm antibody 136 (antibody, human IgG1, kappa, L234A L235A)
heavy: not shown
light: B2 light with A51V, K61R, E70D, Y92N, G93S
chain: not shown
notes: made in Expi-CHO
B4: anti-c-Met single-arm antibody 74 (antibody, human IgG1, kappa, L234A L235A)
heavy: not shown
light: B2 light with S30N, K45N, K61R, S65R, E70D, T72S, Q79H, F87Y, Y92K
chain: not shown
notes: made in Expi-CHO
B5: anti-c-Met single-arm antibody 187 (antibody, human IgG1, kappa, L234A L235A)
heavy: not shown
light: B2 light with K45N, S53N, Q55P, K61R, E70V, F87Y, A91S, Y92N, G93S
chain: not shown
notes: made in Expi-CHO
B6: anti-c-Met single-arm antibody 221 (antibody, human IgG1, kappa, L234A L235A)
heavy: not shown
light: EIVLTQSPGTLSLSPGERATLSCRASQSVSSSYLAWYQQKPGQAPRLLIYGPSSRATGIPDRFSGSGSGTDFTLTISSLQPADFASYYCQQSYITPYTFGQGTKVEIKRTVAAPSVFIFPPSDEQLKSGTASVVCLLNNFYPREAKVQWKVDNALQSGNSQESVTEQDSKDSTYSLSSTLTLSKADYEKHKVYACEVTHQGLSSPVTKSFNRGEC
chain: not shown
notes: made in Expi-CHO
B7: anti-c-Met single-arm antibody 23 (antibody, human IgG1, kappa, L234A L235A)
heavy: not shown
light: DIVMTQSPSSLSASVGDRVTITCRASQSFSDYLNWYRQKPGKAPKLLLFAASSLQSGVPSRFSGSGSGTDFTLTISSLQPEDFATYYCQQSYSPPYTFGQGTKLEIKRTVAAPSVFIFPPSDEQLKSGTASVVCLLNNFYPREAKVQWKVDNALQSGNSQESVTEQDSKDSTYSLSSTLTLSKADYEKHKVYACEVTHQGLSSPVTKSFNRGEC
chain: not shown
notes: made in Expi-CHO

molecular target: monkey c-Met (recombinant protein) (monkey); assay: BLI (ForteBio), antibody on AHQ sensor, monkey c-Met in solution, 1:1 model

Kd	koff	kon	Binder
16.2 nM	0.00109 s⁻¹	67300 M⁻¹ s⁻¹	B1
19 nM	0.00259 s⁻¹	136000 M⁻¹ s⁻¹	B2
1.16 nM	0.000426 s⁻¹	369000 M⁻¹ s⁻¹	B3
9.7 nM	0.0026 s⁻¹	269000 M⁻¹ s⁻¹	B4
2.92 nM	0.000947 s⁻¹	324000 M⁻¹ s⁻¹	B5
63.8 nM	0.00192 s⁻¹	30100 M⁻¹ s⁻¹	B6
26.5 nM	0.00151 s⁻¹	56900 M⁻¹ s⁻¹	B7
